Source: the DeepSol protein solubility set

Test: soluble on expression in E. coli; label from the status in PepcDB or PDB records

Soluble on expression in E. coli, not soluble:
MGHHHHHHSHMLYVRCGTVGSRMFLVYVSYLINTTIEEKEIVCKCHKDETVTIETVFPFDVAVKFVSTKFEHLERVYADIPFLLMTDLLSASPWALTIVSSELQLAPSMTTVDQLESQVDNVILQTGESASECFCLQCPSLGNIEGGVATGHYIISWKRTSAMENIPIITTVITLPHVIVESIPLHVNADLPSFGRVRESLPVKYHLQNKTDLVQDVEISVEPSDAFMFSGLKQIRLRILPGTEQEMLYNFYPLMAGYQQLPSLNINLLRFPNFTNQLLRRFIPTSIFVKPQGRLMDDTSIAAA
TKDFSWNTTFNISHNKNEIVTLDGMQTEIISGTQIRKVGKSYRTFYMIEFAGINPETGAPQFYTNDLDENGNYIKEITEKYSEANAIVLDKHAEPNVIGGLSNTLRYKWFDLNFMFSYQFGGYSYDNWAQKTEHGGNDLEANIPTYYRDSWKQPGDITKYELFIESPDVAMNKSTTTRRLHSSDFIRLKTLTFGITLPQVWTQKIGVNNVRVYASANNLWTWAAYDYYDPEAVSGGSAIWGTPPLKTVTFGLSVNF
MNNALYNQIRIFQSIAREGNISAAARKLEITPPSVSNALRLLEEHIGHPLFVRTTRRIELTETGQQLLEQTAAAVETLEKSLEIIRDQNQEPSGAVRITLSRFAYLLILKPAMAAFCQQYPGIQLEISVYDGTVNIIEERFDLGIRFGDILEGGVVARPLMKPFREGLYASSAYLAEYGVPAMPADLHHHRLIGYRFITNNRILPLILNDHGEQLTVEMPGQLISNDIDVMADGIRHGLGIGRLFEPILQLQPDREQFIPVMEDYWKTYPPVYLYYPKNAGRTKRVKALIDFLIMYAADDAEKIGSSR
MAHHHHHHMSILCTISGQTPEEPVVSKTGYVFEKRLIEKHILNYGICPVSGEVLTLQDLYPLKNEQVVKPRPITASSIPGLLSILQTEWDAIISEMFTLRTHVNDIRNQLTHSLYQYDAATRVIAKLLKEKNDYKEEVKKLRNQILSIKSGNDLNEFEVGLSEDLLNEMQEVAKNLLMTRKKRNIEHVSSAEQWKEVTNTNEFDVHSAAIPGVTCLSLDINELKYSYYDDHKNHSFFSGGMDGNVYYVSLEQSKVLAKLQGHLKKVTAIVAHPKYSLCISGANDKTVRIWKGDVETNEFATAHVIAKHKDQITSLALHPMENYFVSSSKDNVWILNDLETSRSIKICKDTPSPFRQLAIHPDGIMLGIGCEDSNIHIFDMKSQEYKASLSGHTSHVSYISFSENGYYLASCSKDKTVKLWDLRKAQCFQTIDVEELPRSICFDFSGKYLSLAAGNDVHVFNFEAKTKAVLVNTLSAHTDAVTQTCFGSRTAYLLSSSMDKTVKVWS
MGSDKIHHHHHHMSETIQPGQTAVVLGAGGFLGSHVADALSNAGYKVRLFDRNPSPFRRSDQEMIIGDLMDISQVSNAVQGAAAVYNFAAIADIDEAHDNPLGTASINVLGNMHALEASRLAGVRRFIFASSVYVYSETGSFYRASKQAAERFTETYHERYGLEYTILRYGSLYGRRSDRRNGIYRMLHEAIQQRAITYRGSGESIREYIHVEDAARMSVQILAPEFANRHLILTGQEKLRIRDVMTMISEMLPWNVDLHYDQAKPGHHYQITPYAFQPRVGRKLVLNEHVDLGQGLLDCIQEIYQQISHGNEEGGTTPSSTDNQA
MVALRGKEIDAFLARPDAGRPIVLLYGPDAGLVRERADALIASAVDDPNDPFSLVRLDGDELSAEPSRLVDEAMTVPLFGGQRAIRVRAGSRSFASGIDTLAEMGVKDCRIVIEAGELRPESPLRKACERAKTAVAIGCYPDTERDLAKLMDDELRIANLRIAQDARAALMSFLGGDRQASRNELRKLTLYAHGKGEITLEDVMAVVADASELKLDPIVDGAFAGRPDIVETEFAKAMIAGTYPGVIISAAQRQAAWLHKSALAIADGQPASAVLDGGFPRLHFSRKPAVETALRNFSVARLAAIIEQLATAALDTRKQSTLAAAIAQRTLMAIAANAKRRGLEHHHHHH
MPRTFEEECDFIDRLTDTKFRIKKGFVPNMNVEGRFYVNNSLEQLMFDELKFSCDGQGIGGFLPAVRQIANVASLPGIVGHSIGLPDIHSGYGFSIGNIAAFDVGNPESVISPGGVGFDINCGVRLLRTNLFEENVKPLKEQLTQSLFDHIPVGVGSRGAIPMLASDLVECLEMGMDWTLREGYSWAEDKEHCEEYGRMLQADASKVSLRAKKRGLPQLGTLGAGNHYAEVQVVDEIYDKHAASTMGIDEEGQVVVMLHCGSRGLGHQVATDSLVEMEKAMARDGIVVNDKQLACARINSVEGKNYFSGMAAAANFAWVNRSCITFCVRNAFQKTFGMSADDMDMQVIYDVSHNVAKMEEHMVDGRPRQLCVHRKGATRAFPAHHPLIPVDYQLIGQPVLIGGSMGTCSYVLTGTEQGLVETFGTTCHGAGRALSRAKSRRTITWDSVIDDLKKKEISIRIASPKLIMEEAPESYKNVTDVVDTCDAAGISKKAVKLRPIAVIKG
MGSDKIHHHHHHMSDPIPAAPTDNGVPVSLRSSRGRGWHGFGASLLEIRAGTYRIPAAEHHRIGVHIGSPVRADCVCDGARVSRIQAHGDVDVIPAGLPGEWTDSADCRILHIALSDTFVRRTFDQLELKPSQAQIRRRLQVRDPRLQHIAWAMAAELEAEDASDPLYAESLCTALVARLADSQPAFREHRRTLAPKAAARVIDYVEANLERRMTLAELAALVSISVPHFKVLFRETLGMPVHQYVVRRRVERAKALLLEGRLGISQIALEAGFAHQSHMAHWMNRVLGATPTEIARSGARGGLRLAYDGEDR
MSAASTTSTPAAAAVAPQQPESLYRVVQTLGEGAFGEVLLIVNTKNPEVAAAMKKINIANKSKDFIDNIRKEYLLQKRVSAVGHDNVIRMIGMRNDPQFYYLFLEYADGGELFDKIEPDCGMSPVFAQFYFKQLICGLKFIHDNDVVHRDIKPENLLLTGTHVLKISDFGMATLYRNKGEERLLDLSCGTIPYAAPELCAGKKYRGPPVDVWSSGIVLIAMLTGELPWDRASDASQSYMGWISNTSLDERPWKKIDVRALCMLRKIVTDKTDKRATIEQIQADPWYQHNFGQVETPNGRPLKRARNNDENITCTQQAECSAKRRHLETPNEKSTLAERQNASFSQPTKTEDLLLTQHIDMSQTNSVRKKPSEIGGFLAKISNFSVNLLQRMVCRMTRFCVVTDIRSTYQKVARASEHAGFGVRETDDYRLLVTWREVSMMVSLYTMGDIPDKPRVMVDFRRSRGDGIQFKKMFMDVRNRMHEWICTDGNNWLANLGYVPRNPQIVNGGGVNVEHSASSINVDV
PSIKSAIQGKPVNPLNVSPTRLPILTADEKEFDVKIIVTGDRNQLADLEYVDEDFSTGLTMYTEVEEDIHLSASNLELYVGLVNWICSEYGFPSLDDGAFQRLLLAGMRLTEDQH
MASEGGNSNGGTSGTGTKSEQDPKEGKRFFNFVFNVNKKITDETEMTQDFMNDLKHYQEFDETVTKCAGYLENVFIPYSSKGSKPEEEAFTRLATALGDFKSFVPQAYTAIFENFSTKMKAAGVSRKCHQALQAHDLRHMKKFHTESYEAFVEQRKKFDESRKKMDQAKADVRDAKTTTAIEKKAICYQLTVDDFDQKTEELIKIIEALPKVKQEYVRDIYLILSKHKQFHADMSKFFAASCVL
MGSDKIHHHHHHVTNKRPIAFDATPDTLRRSLVLSAAAASGLGLLPGAMRDARAQSFPPLGNFPAGTEGNSVFVGVSVPLTGAFSAEGKDQQLGFELAFEHLNSGKLAGKIPELKGKGVLGKTITFGVVDTEAKAESAIQGQTRFLRNNKAILMTGCYSSAVTVALGKLAQREKVLYMAGPAGSDDVTGKDCQRYSFRSQPSTTMASRALAPVLAERLGKGKKVAYLVPDYTFGHTQFESMARLTEPMGWKTVSKQVCPIGTADFSTYLLNIANSGADVFVNCTVGNDCSVSIKQAKNFGVMKNAALVVPTLQPFLAQQLGPEVTQDILGVMDFWWSLAESNELAKQFVDDFQAKHNYKPYWPAHIAYSQMLIWAVAVERAKTFYPPEVIKALEARVPIRTTLGDVMYRPEDHQLVRPVPVMRGKKPSEMKSKDDYYEVIKMIPGADAVTPLDQGTCKMGELT

Soluble on expression in E. coli, soluble:
AHHHHHHGSVRVAIIGQGYVASIFAVGLERIKEGELGYYGIPLANELPIKVEDIKIVASYDVDKTKIGLPLSEIVQRYWKGNVPESLQEVFVRKGIHLGSLRNLPIEATGLEDEMTLKEAIERLVEEWKEKKVDVIINVPTTEAFTPFGKLEELEKAIKDNNKERLTATQAYAYAAAQYAKEVGGAAFVNAIPTLIANDPAFVELAKESNLVIFGDDGATGATPLTADILGHLAQRNRHVLDIVQFNIGGNTDFLALTDKERNKSKEYTKSSVVEDILGYDAPHFIKPTGYLEPLGDKKFIAMHIEYISFNGARDELIIAGRINDSPALAGLLVDLARLGKIAVDKKEFGTVYPVNAFYMKNPGPKEAKNIPRIIAYEKLRQWAGLPPRYL
MTENCCVPGGTVMILSCSGGSNVGQLSNQAAVELTREGVGKMFCLAGIGGQLSGFVQSARDVPEMVTIDGCSVGCAKAILEKARVPLKSYLVLTDLGIEKNKNFELSSHDIRRVKEAVKALLFEK
MAIKSVLFLRSNPVAPDPRVAKEAQALADAGYKVGVVAWDRTGELPKVEETPFGLVERLPIKGSFRSGLANLLPLVRFNLALLWHLIKRRSTYDAIHACDFDTVLPALVAAKLLGKKVVYDVFDFYADMLRATPGWIKSIIKKVDLRLMGWVDAVILADESRVKQIQGARPKRLTFIYNSPPIEDPFPLPPAPPPLRIAYVGLLQKERGILQVIELLRRHPEWELDLGGFGGDEEEIRRAVADLPNVRYHGRVPYEKALELMSNAHLLFATYDPSIPNHRYSSANKLFEAMAIGRPIVVARDTGMDQLVQQYALGFVVEYGNLAALEDAFARVASWDLQRFEEFSQKAQEVYVTRFAWRIMKERLIALYRKLEE
SAAALRVAAVGARLSVLASGLRAAVRSLCSQATSVNERIENKRRTALLGGGQRRIDAQHKRGKLTARERISLLLDPGSFVESDMFVEHRCADFGMAADKNKFPGDSVVTGRGRINGRLVYVFSQDFTVFGGSLSGAHAQKICKIMDQAITVGAPVIGLNDSGGARIQEGVESLAGYADIFLRNVTASGVIPQISLIMGPCAGGAVYSPALTDFTFMVKDTSYLFITGPDVVKSVTNEDVTQEELGGAKTHTTMSGVAHRAFENDVDALCNLRDFFNYLPLSSQDPAPVRECHDPSDRLVPELDTIVPLESTKAYNMVDIIHSVVDEREFFEIMPNYAKNIIVGFARMNGRTVGIVGNQPKVASGCLDINSSVKGARFVRFCDAFNIPLITFVDVPGFLPGTAQEYGGIIRHGAKLLYAFAEATVPKVTVITRKAYGGAYDVMSSKHLCGDTNYAWPTAEIAVMGAKGAVEIIFKGHENVEAAQAEYIEKFANPFPAAVRGFVDDIIQPSSTRARICCDLDVLASKKVQRPWRKHANIPL
GPLPVDLRGKTAFVAGVADSNGYGWAICKLLRAAGARVLVGTWPPVYSIFKKGLESSRFEQDSFYAQEPSSKVAAEAAEKPVDLVFDKIYPLDAVFDTPQDVPPEVSSNKRYAGVGGFTISEVAEAVRADVGQIDILVHSLANGPEVTKPLLQTSRKGYLAAVSSSSYSFVSLLQHFLPLMKEGGSALALSYIASEKVIPGYGGGMSSAKAALESDCRTLAFEAGRARAVRVNCISAGPLKSRAASAIGKAGDKTFIDLAIDYSEANAPLQKELESDDVGRAALFLLSPLARAVTGATLYVDNGLHAMGQALDSKSLTP
GMKSQWECFLQNLGVWEGSFSNFSPEGTLLNDTSSRLCLEGLNNNQTVRLTLSRSGKDDVIREFRSVGGGLLFFENGSFSEGLIQLGPFSEFGGELAFVHENRRLRLVQLFDRNGHLNGLTLIREHLAGTPVAERPLLQINDLLGEWRGQAVTIYRDLRPPDIYSTTLKIQLDDAGRLMQSTSFGERTITSTATIKGSIVLFDQDPEKQVQVLLLPDGASATSPLKVQLRQPLFLEAGWLIQSDLRQRMIRSYNDKGEWVSLTLVTEERV
